Data as given in US20250000991A1 (Eli Lilly, published 2025).

T1: human Nectin-4-eGFP on T24 cells (clone 3) (human, UniProt Q96NY8 32-510)
T1 sequence: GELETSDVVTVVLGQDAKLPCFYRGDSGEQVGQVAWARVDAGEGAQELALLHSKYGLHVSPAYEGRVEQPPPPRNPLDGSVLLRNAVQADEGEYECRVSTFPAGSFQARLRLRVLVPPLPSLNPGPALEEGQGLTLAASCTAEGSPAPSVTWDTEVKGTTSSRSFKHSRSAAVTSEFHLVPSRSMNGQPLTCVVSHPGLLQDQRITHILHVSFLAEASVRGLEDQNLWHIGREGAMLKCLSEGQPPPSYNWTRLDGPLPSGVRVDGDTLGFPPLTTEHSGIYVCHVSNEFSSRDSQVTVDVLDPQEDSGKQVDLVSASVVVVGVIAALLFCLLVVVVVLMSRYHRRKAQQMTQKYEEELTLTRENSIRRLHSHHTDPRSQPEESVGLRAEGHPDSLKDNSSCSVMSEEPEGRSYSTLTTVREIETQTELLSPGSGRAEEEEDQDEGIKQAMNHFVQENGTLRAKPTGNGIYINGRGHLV

T2: human nectin-4 on cells (human, UniProt Q96NY8 32-510)
T2 sequence: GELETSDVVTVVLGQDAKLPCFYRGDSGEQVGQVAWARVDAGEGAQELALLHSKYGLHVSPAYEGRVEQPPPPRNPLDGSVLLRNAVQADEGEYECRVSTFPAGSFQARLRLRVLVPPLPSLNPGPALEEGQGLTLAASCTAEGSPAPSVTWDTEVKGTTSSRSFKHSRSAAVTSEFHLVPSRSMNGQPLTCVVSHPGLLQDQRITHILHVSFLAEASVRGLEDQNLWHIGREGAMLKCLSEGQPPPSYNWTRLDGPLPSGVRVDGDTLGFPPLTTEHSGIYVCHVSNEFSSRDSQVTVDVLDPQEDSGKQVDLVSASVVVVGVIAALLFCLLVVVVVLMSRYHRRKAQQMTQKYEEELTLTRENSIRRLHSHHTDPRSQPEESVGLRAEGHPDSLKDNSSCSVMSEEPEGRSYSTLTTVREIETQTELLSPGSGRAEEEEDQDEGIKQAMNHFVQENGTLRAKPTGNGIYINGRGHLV

T3: recombinant HIS-tagged human nectin-4 (Acro Biosystems Cat. No. NE4-H52H3) (human, UniProt Q96NY8 32-349)
T3 construct: Bought protein; not shown: HIS tag
T3 sequence: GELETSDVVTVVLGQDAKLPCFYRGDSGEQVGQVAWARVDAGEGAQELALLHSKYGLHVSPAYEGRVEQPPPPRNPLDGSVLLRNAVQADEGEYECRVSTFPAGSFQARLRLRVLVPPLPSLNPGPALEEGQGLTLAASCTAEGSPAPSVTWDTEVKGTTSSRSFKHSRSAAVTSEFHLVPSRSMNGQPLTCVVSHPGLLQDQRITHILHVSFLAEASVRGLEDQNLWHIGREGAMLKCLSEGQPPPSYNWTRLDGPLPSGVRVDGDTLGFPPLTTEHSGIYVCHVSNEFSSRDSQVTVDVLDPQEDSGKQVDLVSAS

T4: recombinant HIS-tagged cyno nectin-4 (Acro Biosystems Cat. No. NE4-C52H4) (cyno, UniProt A0A2K5WES1 32-349)
T4 construct: Bought protein; HIS tag not described
T4 sequence: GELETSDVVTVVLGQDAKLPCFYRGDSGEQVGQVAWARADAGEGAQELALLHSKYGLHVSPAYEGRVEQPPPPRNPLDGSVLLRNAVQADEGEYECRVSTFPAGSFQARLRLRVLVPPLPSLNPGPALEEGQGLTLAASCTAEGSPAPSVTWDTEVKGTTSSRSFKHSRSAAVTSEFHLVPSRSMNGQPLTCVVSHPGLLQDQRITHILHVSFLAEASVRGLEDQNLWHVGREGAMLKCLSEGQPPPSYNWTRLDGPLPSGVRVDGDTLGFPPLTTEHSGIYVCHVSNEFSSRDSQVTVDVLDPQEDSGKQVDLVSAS

T5: recombinant HIS-tagged rat nectin-4 (R&D Systems Cat. No. 9997-N4-050) (rat, UniProt D3ZET1 31-348)
T5 construct: Bought protein; HIS tag not described
T5 sequence: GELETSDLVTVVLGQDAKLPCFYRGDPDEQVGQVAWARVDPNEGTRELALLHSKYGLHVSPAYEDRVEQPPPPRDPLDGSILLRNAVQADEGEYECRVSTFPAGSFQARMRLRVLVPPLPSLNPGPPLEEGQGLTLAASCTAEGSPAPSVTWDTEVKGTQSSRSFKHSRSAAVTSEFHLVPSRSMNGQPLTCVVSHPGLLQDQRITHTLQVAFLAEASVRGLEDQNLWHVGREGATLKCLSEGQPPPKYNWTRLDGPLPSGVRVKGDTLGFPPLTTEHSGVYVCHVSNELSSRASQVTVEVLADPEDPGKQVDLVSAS


What was measured:
[1] = target: T1, human Nectin-4-eGFP on T24 cells (clone …); assay: cell-based or functional assay
human nectin-4 on cells [2] = target: T2, human nectin-4 on cells; assay: cell-based or functional assay
[3] = target: T3, recombinant HIS-tagged human nectin-4 …; assay: SPR Biacore 8K+, ADC captured via anti-human Fc, nectin-4 analyte, 37 C;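 further: Nectin-4 injected over captured ADC at 0 to 600 nM for 2 min association, then 10 min dissociation, with a reference flow cell lacking ADC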
[4] = target: T4, recombinant HIS-tagged cyno nectin-4 …; assay: as above
[5] = target: T5, recombinant HIS-tagged rat nectin-4 …; assay: as above
[6] = target: T3, recombinant HIS-tagged human nectin-4 …; assay: SPR Biacore 8K+, ADC captured via anti-human Fc, nectin-4 analyte, 37 C; replicate 1 of 2
[7] = target: T3, recombinant HIS-tagged human nectin-4 …; assay: SPR Biacore 8K+, ADC captured via anti-human Fc, nectin-4 analyte, 37 C; replicate 2 of 2
human nectin-4 on cells [8] = target: T2, human nectin-4 on cells; assay: flow cytometry, NCI-H1781 cells (low endogenous nectin-4)
human nectin-4 on cells [9] = target: T2, human nectin-4 on cells; assay: flow cytometry, SUM190PT cells (high endogenous nectin-4)
human nectin-4 on cells [10] = target: T2, human nectin-4 on cells; assay: flow cytometry, differentiated normal human epidermal keratinocytes (HEKα)

Row | Binder | % activity (max GFP signal loss compared to enfortumab mAb (100%)) [1] | EC50 (nM) of nectin-4-eGFP signal loss [1] | Cytotoxicity IC50, NCI H1781 cells (human nectin-4 on cells [2]) | Cytotoxicity IC50, T24 Nectin-4 clone 108 cells (human nectin-4 on cells [2]) | Kd [3] | koff [3] | kon [3] | Kd [4] | koff [4] | kon [4] | Kd [5] | koff [5] | kon [5] | EC50 (human nectin-4 on cells [10]) | also measured
1 | Ab8 ADC (Ab8 conjugated as in Formula XI, DAR of 8) (antibody, human IgG1, lambda, L234A L235A, V domains shown, camptothecin analog linker-payload of Formula XI on cysteine thiols after full reduction, DAR of 8 per antibody; positions not given, Antibody-drug conjugate of Ab8; also called Ab8 (ADC column)) VH: QVQLVQSGAEVKKPGASVKVSCKASGYTFTSYYIHWVRQAPGQGLEWMGIINPISGRTSSAQKFQGRVTMTRDTSTSTVYMELSSLRSEDTAVYYCAKEGVGGELLRAFDIWGQGTLVTVSS VL: QSVLTQPPSVSEAPRQRVTISCSGSSSNIGNNAVNWYQQLPGKAPKLLIYYDDLLPSGVSDRFSGSKSGTSASLAISGLQSEDEADYYCAAWDDSLNGFVFGGGTKLTVLG | 125% | 2.48 nM | 0.0572 nM | 0.088 nM | 48.7 nM | 0.0338 s⁻¹ | 694000 M⁻¹ s⁻¹ | 42.1 nM | 0.0524 s⁻¹ | 1.25e+06 M⁻¹ s⁻¹ | 34.4 nM | 0.0165 s⁻¹ | 482000 M⁻¹ s⁻¹ | – | –
2 | Ab7 ADC (Ab7 conjugated as in Formula XI, DAR of 8) (antibody, human IgG1, lambda, L234A L235A, V domains shown, camptothecin analog linker-payload of Formula XI on cysteine thiols after full reduction, DAR of 8 per antibody; positions not given, Antibody-drug conjugate of Ab7; also called Ab7 (ADC column)) VH: QVQLVQSGAEVKKPGASVKVSCKASGYTFTNYYMHWVRQAPGQGLEWMGIINPSSGSASYAQKFQGRVTMTRDTSTSTVYMELSSLRSEDTAVYYCAREGVGRDILQAFDIWGQGTLVTVSS VL: QSVLTQPPSVSEAPRQRVTISCSGSSSNIGNNAVNWYQQLPGKAPKLLIYYDDLLPSGVSDRFSGSKSGTSASLAISGLQSEDEADYYCAAWDDSLNGHVFGGGTKLTVLG | 126% | 2.61 nM | 0.0543 nM | 0.0801 nM | – | – | – | 39.2 nM | 0.0464 s⁻¹ | 1.18e+06 M⁻¹ s⁻¹ | 73.1 nM | 0.0296 s⁻¹ | 404000 M⁻¹ s⁻¹ | – | Kd [6]: 41.2 nM; koff [6]: 0.0243 s⁻¹; kon [6]: 591000 M⁻¹ s⁻¹; Kd [7]: 37.6 nM; koff [7]: 0.0212 s⁻¹; kon [7]: 564000 M⁻¹ s⁻¹
3 | Ab5 ADC (Ab5 conjugated as in Formula XI, DAR of 8) (antibody, human IgG1, kappa, L234A L235A, V domains shown, camptothecin analog linker-payload of Formula XI on cysteine thiols after full reduction, DAR of 8 per antibody; positions not given, Antibody-drug conjugate of Ab5; also called Ab5 (ADC column)) VH: QVQLVQSGAEVKKPGASVKVSCKASGYTFTSYYVHWVRQAPGQGLEWMGIINPSIISTSYAQKFQARVTMTRDTSTSTVYMELSSLRSEDTAVYYCARGLNFDAFDIWGQGTLVTVSS VL: DIQLTQSPSFLSASVGDRVTITCRASQGISSYLAWYQQKPGKAPKLLIYAASTLQSGVPSRFSGSGSGTEFTLTISSLQPEDFATYYCQQLNNYPFTFGQGTKVEIKR | 112% | 2.8 nM | 0.0657 nM | 0.0994 nM | 3.94 nM | 0.00346 s⁻¹ | 878000 M⁻¹ s⁻¹ | 3.1 nM | 0.0033 s⁻¹ | 1.06e+06 M⁻¹ s⁻¹ | 31.3 nM | 0.0199 s⁻¹ | 636000 M⁻¹ s⁻¹ | – | –
4 | Ab1a ADC (Ab1a conjugated as in Formula XI, DAR of 8) (antibody, human IgG1, kappa, L234A L235A, V domains shown, camptothecin analog linker-payload of Formula XI on cysteine thiols after full reduction, DAR of 8 per antibody; positions not given, Antibody-drug conjugate of Ab1a; also called Ab1a (ADC column)) VH: QVQLVQSGAQVKKPGASVKVSCKASGYTFTGYYIHWVRQAPGQGLEWMGWINPNSGGTNYAQKFQGRVTMTRDTSISTAYMELSRLRSDDTAVYFCAREDWDFDYWGQGTLVTVSS VL: EIVLTQSPGTLSLSPGERATLSCRTSQSVSSSYLAWYQQKPGQAPRLLIYGASNRATDIPDRFSGSGSGTDFTLTINRLEPEDFAVYYCQQYGSSPITFGQGTRLEIKR | 150% | 2.3 nM | 0.0981 nM | 0.0729 nM | – | – | – | 83.9 nM | 0.026 s⁻¹ | 310000 M⁻¹ s⁻¹ | 180 nM | 0.0453 s⁻¹ | 252000 M⁻¹ s⁻¹ | – | Kd [6]: 142 nM; koff [6]: 0.0402 s⁻¹; kon [6]: 283000 M⁻¹ s⁻¹; Kd [7]: 72.5 nM; koff [7]: 0.0308 s⁻¹; kon [7]: 424000 M⁻¹ s⁻¹
5 | Ab2 (antibody, human IgG1, kappa, L234A L235A, V domains shown, Unconjugated antibody; also called Antibody 2; nectin-4 antibody Ab2) VH: EVQLVESGGGLVQPGGSLRLSCAASGFTFSSYDMHWVRQATGKGLEWVSAIGTVGDTYYPGSVKGRFTISRENAKNSLYLQMNSLRAGDTAVYYCAREWNGMDVWGQGTTVTVSS VL: not shown | 113% | 1.43 nM | – | – | – | – | – | – | – | – | – | – | – | 0.05 nM | % of enfortumab (Average Max MFI) (human nectin-4 on cells [8]): 95.7%; Average Max MFI (human nectin-4 on cells [8]): 87000 MFI; EC50 (human nectin-4 on cells [8]): 0.06 nM; % of enfortumab (Average Max MFI) (human nectin-4 on cells [9]): 87.2%; Average Max MFI (human nectin-4 on cells [9]): 920000 MFI; EC50 (human nectin-4 on cells [9]): 0.19 nM
6 | Ab2 ADC (Ab2 conjugated as in Formula XI, DAR of 8) (antibody, human IgG1, kappa, L234A L235A, V domains shown, camptothecin analog linker-payload of Formula XI on cysteine thiols after full reduction, DAR of 8 per antibody; positions not given, Antibody-drug conjugate of Ab2; also called Ab2 (ADC column)) VH: EVQLVESGGGLVQPGGSLRLSCAASGFTFSSYDMHWVRQATGKGLEWVSAIGTVGDTYYPGSVKGRFTISRENAKNSLYLQMNSLRAGDTAVYYCAREWNGMDVWGQGTTVTVSS VL: not shown | 132% | 1.96 nM | 0.0473 nM | 0.07 nM | 21 nM | 0.0214 s⁻¹ | 1.02e+06 M⁻¹ s⁻¹ | 19.8 nM | 0.02 s⁻¹ | 1.01e+06 M⁻¹ s⁻¹ | 108 nM | 0.0753 s⁻¹ | 695000 M⁻¹ s⁻¹ | 0.05 nM | –
7 | enfortumab (antibody, V domains shown) VH: EVQLVESGGGLVQPGGSLRLSCAASGFTFSSYNMNWVRQAPGKGLEWVSYISSSSSTIYYADSVKGRFTISRDNAKNSLSLQMNSLRDEDTAVYYCARAYYYGMDVWGQGTTVTVSS VL: DIQMTQSPSSVSASVGDRVTITCRASQGISGWLAWYQQKPGKAPKFLIYAASTLQSGVPSRFSGSGSGTDFTLTISSLQPEDFATYYCQQANSFPPTFGGGTKVEIKR | 97% | 2.13 nM | – | – | – | – | – | – | – | – | – | – | – | 0.06 nM | % of enfortumab (Average Max MFI) (human nectin-4 on cells [8]): 100%; Average Max MFI (human nectin-4 on cells [8]): 91000 MFI; EC50 (human nectin-4 on cells [8]): 0.05 nM; % of enfortumab (Average Max MFI) (human nectin-4 on cells [9]): 100%; Average Max MFI (human nectin-4 on cells [9]): 1.1e+06 MFI; EC50 (human nectin-4 on cells [9]): 0.11 nM
